Measurements reported in patent US20140178854A1.

Assays:
[1] = biological target: gp70 env protein of amphotropic MLV (4070A envelope), on purified viral particles (amphotropic murine leukemia virus (4070A envelope)); assay: ELISA on plate-bound MLV, dilution factor 10, Exp073-DTV Plate 2
[2] = biological target: gp70 env protein of amphotropic MLV (4070A envelope), on purified viral particles (amphotropic murine leukemia virus (4070A envelope)); assay: ELISA on plate-bound MLV, dilution factor 31250, Exp074-DTV Plate 1
[3] = biological target: gp70 env protein of amphotropic MLV (4070A envelope), on purified viral particles (amphotropic murine leukemia virus (4070A envelope)); assay: ELISA on plate-bound MLV, dilution factor 250, Exp073-DTV Plate 1
[4] = biological target: gp70 env protein of amphotropic MLV (4070A envelope), on purified viral particles (amphotropic murine leukemia virus (4070A envelope)); assay: ELISA on plate-bound MLV, dilution factor 156250, Exp122-Ana Plate 1
[5] = biological target: gp70 env protein of amphotropic MLV (4070A envelope), on purified viral particles (amphotropic murine leukemia virus (4070A envelope)); assay: ELISA on plate-bound MLV, dilution factor 156250, Exp073-DTV Plate 2
[6] = biological target: gp70 env protein of amphotropic MLV (4070A envelope), on purified viral particles (amphotropic murine leukemia virus (4070A envelope)); assay: ELISA on plate-bound MLV, dilution factor 10, inter-assay mean of six experiments
[7] = biological target: gp70 env protein of amphotropic MLV (4070A envelope), on purified viral particles (amphotropic murine leukemia virus (4070A envelope)); assay: ELISA on plate-bound MLV, dilution factor 10, Exp072-DTV Plate 1
[8] = biological target: gp70 env protein of amphotropic MLV (4070A envelope), on purified viral particles (amphotropic murine leukemia virus (4070A envelope)); assay: ELISA on plate-bound MLV, dilution factor 31250, Exp122-Ana Plate 2
[9] = biological target: gp70 env protein of amphotropic MLV (4070A envelope), on purified viral particles (amphotropic murine leukemia virus (4070A envelope)); assay: ELISA on plate-bound MLV, dilution factor 6250, inter-assay mean of six experiments
[10] = biological target: gp70 env protein of amphotropic MLV (4070A envelope), on purified viral particles (amphotropic murine leukemia virus (4070A envelope)); assay: ELISA on plate-bound MLV, dilution factor 781250, inter-assay mean of six experiments
[11] = biological target: gp70 env protein of amphotropic MLV (4070A envelope), on purified viral particles (amphotropic murine leukemia virus (4070A envelope)); assay: ELISA on plate-bound MLV, dilution factor 6250, Exp072-DTV Plate 2
[12] = biological target: gp70 env protein of amphotropic MLV (4070A envelope), on purified viral particles (amphotropic murine leukemia virus (4070A envelope)); assay: ELISA on plate-bound MLV, dilution factor 781250, Exp125-Ana Plate 2
[13] = biological target: gp70 env protein of amphotropic MLV (4070A envelope), on purified viral particles (amphotropic murine leukemia virus (4070A envelope)); assay: ELISA on plate-bound MLV, dilution factor 156250, Exp122-Ana Plate 2
[14] = biological target: gp70 env protein of amphotropic MLV (4070A envelope), on purified viral particles (amphotropic murine leukemia virus (4070A envelope)); assay: ELISA on plate-bound MLV, dilution factor 31250, Exp073-DTV Plate 1
[15] = biological target: gp70 env protein of amphotropic MLV (4070A envelope), on purified viral particles (amphotropic murine leukemia virus (4070A envelope)); assay: ELISA on plate-bound MLV, dilution factor 781250, Exp072-DTV Plate 2
[16] = biological target: gp70 env protein of amphotropic MLV (4070A envelope), on purified viral particles (amphotropic murine leukemia virus (4070A envelope)); assay: ELISA on plate-bound MLV, dilution factor 1250, Exp073-DTV Plate 1
[17] = biological target: gp70 env protein of amphotropic MLV (4070A envelope), on purified viral particles (amphotropic murine leukemia virus (4070A envelope)); assay: ELISA on plate-bound MLV, dilution factor 50, Exp074-DTV Plate 2
[18] = biological target: gp70 env protein of amphotropic MLV (4070A envelope), on purified viral particles (amphotropic murine leukemia virus (4070A envelope)); assay: ELISA on plate-bound MLV, dilution factor 31250, Exp125-Ana Plate 2
[19] = biological target: gp70 env protein of amphotropic MLV (4070A envelope), on purified viral particles (amphotropic murine leukemia virus (4070A envelope)); assay: ELISA on plate-bound MLV, dilution factor 781250, Exp121-Ana Plate 2
[20] = biological target: gp70 env protein of amphotropic MLV (4070A envelope), on purified viral particles (amphotropic murine leukemia virus (4070A envelope)); assay: ELISA on plate-bound MLV, dilution factor 156250, Exp072-DTV Plate 1
[21] = biological target: gp70 env protein of amphotropic MLV (4070A envelope), on purified viral particles (amphotropic murine leukemia virus (4070A envelope)); assay: ELISA on plate-bound MLV, dilution factor 6250, Exp125-Ana Plate 1
[22] = biological target: gp70 env protein of amphotropic MLV (4070A envelope), on purified viral particles (amphotropic murine leukemia virus (4070A envelope)); assay: ELISA on plate-bound MLV, dilution factor 31250, Exp072-DTV Plate 2
[23] = biological target: gp70 env protein of amphotropic MLV (4070A envelope), on purified viral particles (amphotropic murine leukemia virus (4070A envelope)); assay: ELISA on plate-bound MLV, dilution factor 1250, Exp121-Ana Plate 1
[24] = biological target: gp70 env protein of amphotropic MLV (4070A envelope), on purified viral particles (amphotropic murine leukemia virus (4070A envelope)); assay: ELISA on plate-bound MLV, dilution factor 50, Exp073-DTV Plate 2
[25] = biological target: gp70 env protein of amphotropic MLV (4070A envelope), on purified viral particles (amphotropic murine leukemia virus (4070A envelope)); assay: ELISA on plate-bound MLV, dilution factor 10, Exp125-Ana Plate 2
[26] = biological target: gp70 env protein of amphotropic MLV (4070A envelope), on purified viral particles (amphotropic murine leukemia virus (4070A envelope)); assay: ELISA on plate-bound MLV, dilution factor 781250, Exp074-DTV Plate 2

Sequence of gp70 env protein of amphotropic MLV (4070A envelope), on purified viral particles (amphotropic murine leukemia virus (4070A envelope)) (P21995 whole entry): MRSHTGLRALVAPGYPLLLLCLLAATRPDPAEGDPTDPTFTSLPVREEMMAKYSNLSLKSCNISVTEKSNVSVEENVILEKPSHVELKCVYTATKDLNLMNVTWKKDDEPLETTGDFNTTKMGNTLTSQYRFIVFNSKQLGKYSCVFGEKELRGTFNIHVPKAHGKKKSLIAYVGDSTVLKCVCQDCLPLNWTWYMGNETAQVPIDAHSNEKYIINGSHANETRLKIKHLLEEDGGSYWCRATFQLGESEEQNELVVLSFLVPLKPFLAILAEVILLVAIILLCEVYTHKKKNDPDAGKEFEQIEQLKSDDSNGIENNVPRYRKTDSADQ

83A25 monoclonal antibody (rat IgG2a, anti-gp70)
Mean OD [1]: 2.48 OD
Mean OD [2]: 0.253 OD
Mean OD [3]: 2.05 OD
Mean OD [4]: 0.18 OD
Mean OD [5]: 0.139 OD
Mean OD (inter-assay mean) [6]: 2.3 OD
Mean OD [7]: 1.98 OD
Mean OD [8]: 0.271 OD
Mean OD (inter-assay mean) [9]: 0.693 OD
Mean OD (inter-assay mean) [10]: 0.118 OD
Mean OD [11]: 0.612 OD
Mean OD [12]: 0.105 OD
Mean OD [13]: 0.174 OD
Mean OD [14]: 0.282 OD
Mean OD [15]: 0.104 OD
Mean OD [16]: 1.78 OD
Mean OD [17]: 2.14 OD
Mean OD [18]: 0.239 OD
Mean OD [19]: 0.131 OD
Mean OD [20]: 0.116 OD
Mean OD [21]: 0.653 OD
Mean OD [22]: 0.21 OD
Mean OD [23]: 1.93 OD
Mean OD [24]: 2.31 OD
Mean OD [25]: 2.27 OD
Mean OD [26]: 0.107 OD
